Experimental data as given in article PMC8689207.

Target: far-red light-acclimated photosystem I (FRL-PSI) complex of Synechococcus sp. PCC 7335, trimeric (Synechococcus sp. PCC 7335 (endogenous in Synechococcus 7335 cells))
Assay: cryo-EM structure; trimeric FRL-PSI isolated whole from FRL-grown Synechococcus 7335 cells (1% β-DM, two sucrose gradients, PIB: 50 mM MES pH 6.5, 15 mM CaCl2, 10 mM MgCl2); Fd not added; ~3 mg Chl/ml, plunge-frozen at 4 °C; C3 symmetry, 2.91 Å

Substance | stoichiometry N | occupancy
far-red light-acclimated photosystem I (FRL-PSI) complex of Synechococcus sp. PCC 7335, trimeric | 3 | 
ferredoxin PetF1 (soluble [2Fe-2S] ferredoxin) of Synechococcus sp. PCC 7335 (natural protein) |  | 10%
